# Molecular target: McbR (Escherichia coli (avian pathogenic, strain APECX40)) (UniProt P76114)
# Assay: EMSA
# McbR (Escherichia coli (avian pathogenic, strain APECX40)), sequence (P76114 whole entry): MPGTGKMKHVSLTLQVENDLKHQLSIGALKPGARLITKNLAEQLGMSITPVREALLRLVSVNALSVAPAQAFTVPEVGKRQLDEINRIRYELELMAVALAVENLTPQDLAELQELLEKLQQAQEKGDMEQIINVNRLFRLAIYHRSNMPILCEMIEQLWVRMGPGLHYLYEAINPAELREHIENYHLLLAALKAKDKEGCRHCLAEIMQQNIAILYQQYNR
sequence,measurement,value
ATGTTCGTGAATTTACAGGCGTTAGATTTACATACATTTGTGAATGTATGTACCATAGCACGACGATAATATAAACGCAGCAATGGGTTTATTAACTTTTGACCATTGACCAATTTGAAATCGGACACTCGAGGTTTACAT (double strand) [p-acrAB],binding,binds

# From article PMC7705038
